Reference: patent publication US20160319016A1 (GOVERNMENT OF THE UNITED STATES OF AMERICA AS REPRESENTED …, published 2016)

Target: T1, CMG2 (UniProt P58335 34-489, limits assumed)
T1 construct: whole, on cells; also called ANTXR2; CHO/CMG2
Test: flow cytometry on CHO/CMG2 cells

T1 sequence (P58335 34-489 limits assumed): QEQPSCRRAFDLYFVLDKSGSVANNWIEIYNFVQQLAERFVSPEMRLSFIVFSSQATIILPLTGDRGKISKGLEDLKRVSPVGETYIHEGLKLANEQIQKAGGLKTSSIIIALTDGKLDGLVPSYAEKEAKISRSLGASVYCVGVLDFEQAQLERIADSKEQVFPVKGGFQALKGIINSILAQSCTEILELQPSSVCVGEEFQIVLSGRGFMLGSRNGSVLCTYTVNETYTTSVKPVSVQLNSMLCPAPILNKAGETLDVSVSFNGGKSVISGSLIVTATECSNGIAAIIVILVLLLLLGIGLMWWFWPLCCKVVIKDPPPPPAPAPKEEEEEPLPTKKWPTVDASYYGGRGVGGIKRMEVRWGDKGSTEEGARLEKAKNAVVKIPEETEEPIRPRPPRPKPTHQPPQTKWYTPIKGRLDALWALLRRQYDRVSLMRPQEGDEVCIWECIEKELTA

B1: AF334 anti-TEM8 monoclonal antibody (antibody, V domains shown)
VH: QVKLEESGAELVRPGVSVKISCKGSGYTFTDYAMHWVKQSHAKSLEWIGVISTYFGDATYNQKFKGKATMTVDKSSSTAYMELARLTSEDSAIYYCAREDYVPFAYWGQGTLVTVSA
VL: DIVMTQTPPSVPVTPGESVSISCRSSKSLLHSNGNTYLYWFLQRPGQSPQLLIYRMSNLASGVPDRFSGSGSGTAFTLRISRVEAEDVGVYYCMQHLEYPFTFGSGTKLEIKR
- binding result: no binding
